Data from patent US8710181B2, “Use of tris(hydroxymethyl) aminomethane for the stabilization of peptides, polypeptides and proteins” (Novo Nordisk A/S, priority 2004, dated 2014).
Values belong to the substance of their own block, whether it stands above or below them.

Assays:
Type in all cases: physicochemical
[1] = Room temperature stability of Arg34-GLP-1[7-37] loading solution and column eluate with TRIS, monitored by RP-HPLC (Example 1); conditions: for Arg34-GLP-1[7-37] eluate concentration: 10 mM Tris pH 9.2, RP-HPLC; for Arg34-GLP-1[7-37] concentration in loading solution: 10 mM TRIS, pH adjusted to 3.2, RP-HPLC
Experimental: An aqueous solution of Arg34-GLP-1[7-37] containing approximately 2% by weight ethanol and 10 mM of tris(hydroxymethyl)aminomethane, at pH 9.2 was made at room temperature, pH was adjusted to 3.2. The room temperature stability of the solution was monitored by RP-HPLC.
The solution was loaded on an ion-exchange column, Source 30S, Amersham Bioscience, at pH 3.23 and after washing the column with an acid buffer containing ethanol and citric acid, the product was eluted with an aqueous solution containing 10 mM Tris at pH 9.2. The room temperature stability of the eluate from the column was monitored by RP-HPLC (Table 1)/(FIG. 1).

[2] = Comparative room temperature stability with glycine instead of TRIS, monitored by RP-HPLC (Comparative Example 1)
Experimental: A comparative test with 20-200 mM glycine instead of tris(hydroxymethyl)aminomethane was done.
An aqueous solution of Arg34-GLP-1[7-37] containing approximately 2% by weight ethanol and 20 mM of glycine, at pH 9.0 was made at room temperature, pH was adjusted to approximately 3.3.
The solution was loaded to an ion-exchange column, Source 30S, Amersham Bioscience, at pH 3.3 and after wash of the column with an acid buffer containing ethanol and citric acid, the product was eluted with an aqueous solution containing 200 mM Glycine at pH 9.5. The stability of the eluate from the column was monitored by RP-HPLC at room temperature for 5 days.

[3] = Repeated preparative runs on Source 30S column 20 cm I.D. with TRIS: pressure and fibrillation (Example 2)
Experimental: (§1) Gelation/fibrillation/aggregation can be estimated by the Thioflavin T test […] resulting in a colored response the degree of gelation. Another result would be increased viscosity of the gelated solution resulting in increasing back pressure on chromatographic columns during multiple runs—this is usually the first indication of gelation taking place, […].
(§2) An aqueous solution of Arg34-GLP-1[7-37] containing approximately 2% by weight ethanol and 10 mM of tris(hydroxymethyl)aminomethane, at pH 9.2 was made at room temperature by dissolution of an Arg34-GLP-1[7-37] isoelectric precipitate directly in the solution. Subsequently, pH was adjusted to 3.2.
A preparative aliquot of the solution was loaded on a large scale ion-exchange column, 20 cm I.D. (internal diameter), Source 30S, Amersham Bioscience, at pH 3.3 and after washing the column with an acid buffer containing ethanol and citric acid to remove impurities, the product was eluted with an aqueous solution containing 10 mM Tris at pH 9.2. The column was regenerated with 1 M NaOH, equilibrated with the acidic wash buffer, and the column was loaded again with loading solution. Eluate from the Source 30S column was automatically pH adjusted with 100 mM tris buffer pH 7.4 to pH 8.0.

[4] = Repeated runs on Source 30S column 45 cm i.d. with TRIS: pressure, analysis of column material for aggregated/fibrillated proteins (Example 4); conditions: after 283 runs on Source 30S column, 10 mM Tris
Experimental: as §1
An aqueous solution of Arg34-GLP-1[7-37] containing approximately 2% by weight ethanol and 10 mM of tris(hydroxymethyl)aminomethane, at pH 9.2 was made at room temperature, pH was adjusted to 3.2.
Aliquot of the solution was loaded to an ion-exchange column, 45 cm i.d., Source 30S, Amersham Bioscience, at pH 3.3 and after wash of the column with an acid buffer containing ethanol and citric acid, the product was eluted with an aqueous solution containing 10 mM Tris at pH 9.2. The column was regenerated and loaded again with loading solution.

[5] = Repeated preparative runs on Source 30Q and RP-HPLC C-18 columns with TRIS: pressure and fibrillation (Example 3)
From the text: as §1
as §2, with “N^ε-hexadecanoyl-γ-glutamyl-Lys26-Arg34-GLP-1[7-37]” for “Arg34-GLP-1[7-37]”, “solution.” for “solution. Subsequently, pH was adjusted to 3.2.”
A preparative aliquot of the solution was loaded on a large scale ion-exchange column, 45 cm I.D. (internal diameter), Source 30Q, Amersham Bioscience, at pH 9.2 and after washing the column with an buffer containing 20 mM tris and 63% by weight ethanol (pH 7.5) to remove impurities, the product was eluted by a sodium chloride gradient at pH 7.5 in a 20 mM tris buffer containing 63% by weight ethanol. The column was regenerated with 1 M NaOH, equilibrated with the pH 7.5 wash buffer, and the column was loaded again with loading solution. Eluate from the Source 30Q column was automatically diluted with water before it was loaded on another large scale column, RP-HPLC column 100 Å C-18, particle diameter 15 μm, column I.D. 45 cm, and eluted with a buffer solution containing 20 mM tris, 125 mM sodium chloride and approx. 45% by weight ethanol at pH 6.9. The column was regenerated with a 70% ethanol solution and subsequently equilibrated with a 25% ethanol solution containing 20 mM Tris.

[6] = Repeated runs on Source 30Q and RP-HPLC columns with TRIS: pressure, analysis of column material for aggregated/fibrillated proteins (Example 5); conditions: 20 mM tris
From the text: as §1
An aqueous solution of N^ε-hexadecanoyl-γ-glutamyl-Lys26-Arg34-GLP-1[7-37] containing approximately 2% by weight ethanol and 10 mM of tris(hydroxymethyl)aminomethane, at pH 9.2 was made at room temperature. Aliquot of the solution was loaded to an ion-exchange column, 45 cm i.d., Source 30Q, Amersham Bioscience, at pH 9.2 and after wash of the column with an neutral buffer containing 20 mM tris and 63% by weight ethanol (pH 7.5), the product was eluted by an sodium chloride gradient at pH 7.5 in a 20 mM tris buffer containing 63% by weight ethanol. The column was regenerated and loaded again with loading solution. One eluate from the Source 30Q column was automatically diluted with water before it was applied to an other column, RP-HPLC column 100 Å C-18, particle diameter i.d. 15 μm, column i.d. 45 cm, and eluted with a buffer containing 20 mM tris, 125 mM sodium chloride and approx. 45% by weight ethanol at pH 6.9.

[7] = after 60 runs on Source 30S column, 20 cm I.D., 10 mM Tris
[8] = after 60 runs on both Source 30Q column and RP-HPLC column, tris buffers with ethanol
[9] = after 77 runs on Source 30Q column, 63% ethanol

Substance: Arg34-GLP-1[7-37]
Arg34-GLP-1[7-37] eluate concentration ([1]; Day 0, Source 30S eluate): 1.4 mg/mL | Arg34-GLP-1[7-37] concentration in loading solution ([1]; Day 0, approx. 2% ethanol): 1.7 mg/mL | Arg34-GLP-1[7-37] eluate concentration ([1]; Day 1, Source 30S eluate): 1.4 mg/mL | Arg34-GLP-1[7-37] concentration in loading solution ([1]; Day 1, approx. 2% ethanol): 1.7 mg/mL | Arg34-GLP-1[7-37] eluate concentration ([1]; Day 2, Source 30S eluate): 1.4 mg/mL | Arg34-GLP-1[7-37] concentration in loading solution ([1]; Day 2, approx. 2% ethanol): 1.7 mg/mL | Arg34-GLP-1[7-37] eluate concentration ([1]; Day 3, Source 30S eluate): 1.3 mg/mL | Arg34-GLP-1[7-37] concentration in loading solution ([1]; Day 5, approx. 2% ethanol): 1.7 mg/mL | Gelation/fibrillation/aggregation ([1]; loading solution and eluate with 10 mM TRIS): not observed | stability at room temperature (fibrillation) ([2]; eluate, 200 mM Glycine pH 9.5): less than one day | stability at room temperature (fibrillation) ([2]; loading solution, 20 mM glycine, approx. 2% ethanol, pH approx. 3.3): less than one day | fibrillation in loading solution and eluate ([3]; 60 runs, Source 30S, 10 mM TRIS loading solution, eluate adjusted to pH 8.0 with tris buffer): no fibrillation was observed | change in pressure on column [3, 7]: no change in pressure was observed | fibrillation on the column [3, 7]: no fibrillation had occurred on the column | change in pressure on column [4]: without change in pressure | proteins or aggregated/fibrillated proteins on the column material [4]: no observation of proteins or aggregated/fibrillated proteins

fibrillation in loading solutions and eluates ([5]; 60 runs, Source 30Q and RP-HPLC, 10-20 mM tris): no fibrillation was observed | change in pressure on column [5, 8]: no change in pressure was observed | change in pressure on column [6, 9]: without change in pressure
Substance: N^ε-hexadecanoyl-γ-glutamyl-Lys26-Arg34-GLP-1[7-37]
fibrillation on the column [5, 8]: no fibrillation had occurred on the column | aggregated/fibrillated proteins on the column material ([6]; RP-HPLC column 100 Å C-18 after 49 runs, 125 mM NaCl, approx. 45% ethanol, pH 6.9): no observations of aggregated/fibrillated proteins | aggregated/fibrillated proteins on the column material [6, 9]: no observation of aggregated/fibrillated proteins
